Data taken from patent US20260167731A1 (DOMAIN THERAPEUTICS, published 2026).
Positions count from the first letter of the chain named. “And” between values parts separate entries of the source, which are not always exact repeats. Equal values may be shown once. Blank lines part the entries; values can stand above or below the binder they belong to.

Tests used:
[1] = target: T1, human CCR8 (human, UniProt P51685 1-355); assay: cell-based or functional assay
[2] = target: T1, human CCR8; assay: flow cytometry, hCCR8 transfected CHOK1 cells
In short: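 Flow cytometry read fluorescent secondary antibody (anti-mouse Alexa 488 or anti-human Fc PE) after washing, with matched isotype controls included.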

[3] = target: pm4, modified CCR8 related peptide (human, sulfated tyrosines at Y15 and Y16); assay: ELISA on coated CCR8 peptide (500 ng/mL), OD [cont.]
In short: (§1)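 In this direct ELISA, CCR8-related peptides coated at 500 ng/mL are probed with anti-CCR8 mAbs (1 μg/mL, also 1/10 dilution; 90 min, room temperature). Read-out is TMB optical density.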

[4] = target: pm6, modified CCR8 related peptide (human, sulfated tyrosines at Y16 and Y17); assay: as above
In short: as §1

[5] = target: pm8, modified CCR8 related peptide (human, sulfated tyrosines at Y15, Y16 and Y17); assay: as above
In short: as §1

[6] = target: T2, pwt1, unmodified CCR8 related peptide (human, none (non-sulfated Y15, Y16, Y17)); assay: as above
T2 construct: First 34 amino acids of human CCR8, synthetic; also called unmodified peptide
In short: as §1

[7] = target: pm1, modified CCR8 related peptide (human, sulfated tyrosine at Y15); assay: as above
In short: as §1

[8] = target: pm3, modified CCR8 related peptide (human, sulfated tyrosine at Y17); assay: as above
In short: as §1

[9] = target: pm5, modified CCR8 related peptide (human, sulfated tyrosines at Y15 and Y17); assay: as above
In short: as §1

[10] = target: pm2, modified CCR8 related peptide (human, sulfated tyrosine at Y16); assay: as above
In short: as §1

[11] = target: T1, human CCR8; assay: cell-based or functional assay; remark: listed apart in the source
[12] = target: T1, human CCR8; assay: cell-based or functional assay; remark: listed apart in the source
[13] = target: T1, human CCR8; assay: flow cytometry, inhibition of hCCL1-AF647 binding to hCCR8 CHO cells
In short: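 hCCR8-transfected CHO cells preincubated 30 min at 4 °C with anti-CCR8 mAb from 10 μg/mL, 1/3 dilutions, 8 concentrations. Bound CCL1 quantified by flow cytometry. IC₅₀ from sigmoidal variable-slope fit.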

[14] = target: T1, human CCR8; assay: cell-based or functional assay; remark: listed apart in the source
[15] = target: T1, human CCR8; assay: cell-based or functional assay; remark: listed apart in the source
[16] = target: T1, human CCR8; assay: cell-based or functional assay; remark: listed apart in the source
[17] = target: T1, human CCR8; assay: flow cytometry, HUT78 cells (endogenous CCR8)
Method: The same staining protocol was applied on human CCR8 transfected CHO cell line versus wild type CHO cell line, cutaneous T cell lymphoma HUT78 cell line and human activated T cell model.
Briefly, 1·10⁵ cells per well in a 96 well plate were incubated with a dilution of unconjugated anti-CCR8 mAb at 10 μg/mL then diluted at 1/3.33, 4 dilution points (during 30 min at 4° C.). In human activated T cells model, prior to mAb incubation, cells were first incubated with 200 nM of hCCL1 (R&D Systems, Minneapolis, MN, USA) or buffer PBS (Invitrogen by Thermofisher Scientific, Illkirch-Graffenstaden, France) supplemented by 2% Fetal Bovine Serum (Invitrogen by Thermofisher Scientific, Illkirch-Graffenstaden, France) and 2 mM EDTA (Invitrogen by Thermofisher Scientific, Illkirch-Graffenstaden, France) during 1 hour at 4° C. To determine EC50 value, 8 concentrations of anti-CCR8 mAb were tested. Unbound antibodies were washed away with PBS (Invitrogen by Thermofisher Scientific, Illkirch-Graffenstaden, France) supplemented by 2% Fetal Bovine Serum (Invitrogen by Thermofisher Scientific, Illkirch-Graffenstaden, France) and 2 mM EDTA (Invitrogen by Thermofisher Scientific, Illkirch-Graffenstaden, France). Subsequently, cells are centrifuged (5 min at 400 g) and bound antibody is detected with F(ab′)₂-Goat anti-Mouse IgG (H+L) Cross-Adsorbed Secondary Antibody, Alexa Fluor 488 (dilution 1/500) (Invitrogen by Thermofisher Scientific, Illkirch-Graffenstaden, France) or with F(ab′)₂-Goat anti-Human IgG Fc Secondary Antibody, PE (Invitrogen by Thermofisher Scientific, Illkirch-Graffenstaden, France) (dilution 1/1000) at 4° C. for 30 min. Detection reagent is washed away and cells are centrifuged (5 min at 400 g) and resuspended in 30 μL PBS. Bound detection antibody is quantified on a MacsQuant16 (Miltenyi, Gladbach, Germany) (B1 or B2 channel, 5000 events per acquisition). During the experiment, the respective isotype mAb controls (mouse IgG1, mouse IgG2a, mouse IgG2b, mouse IgG3 or human IgG1) (Biolegend, Amsterdam, The Netherlands) are included to exclude any unspecific binding events.
EC50 values were determined via nonlinear fit “log(agonist)vs.response−Variable slope (four parameters)” function of Graphpad prism. EC50 values were not constantly determined in the same experiments.

[18] = target: T1, human CCR8; assay: cell-based or functional assay; remark: listed apart in the source

pm3, modified CCR8 related peptide (human, sulfated tyrosine at Y17), sequence (peptide, as listed by the source): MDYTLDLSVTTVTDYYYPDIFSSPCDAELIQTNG
pm4, modified CCR8 related peptide (human, sulfated tyrosines at Y15 and Y16), sequence (peptide, as listed by the source): as above
pm8, modified CCR8 related peptide (human, sulfated tyrosines at Y15, Y16 and Y17), sequence (peptide, as listed by the source): as above
T2 sequence (peptide, as listed by the source): as above
pm6, modified CCR8 related peptide (human, sulfated tyrosines at Y16 and Y17), sequence (peptide, as listed by the source): as above
pm2, modified CCR8 related peptide (human, sulfated tyrosine at Y16), sequence (peptide, as listed by the source): as above
pm5, modified CCR8 related peptide (human, sulfated tyrosines at Y15 and Y17), sequence (peptide, as listed by the source): as above
pm1, modified CCR8 related peptide (human, sulfated tyrosine at Y15), sequence (peptide, as listed by the source): as above

B1: anti-CCR8 mAb 2-1 (antibody, V domains shown)
VH: KVQLQQSGPELVKPGASVKISCKTSGYTFTEYTIHWVQQIHGKSPEWIGGINPNGDTRYDQKFKGKATLTIDKSSSTAYMELRSLTSEDSAVYYCARVARFYGISPYAMDYWGQGTSVTVSS
VL: DVVMTQTPLSLPVSLGDQASISCRCTQSLLHSNGDTYLHWYLQKPGQSPNLLIYKVSNRFSGVPDRFSGSGSGTDFTLKINRVEAEDLGVYFCSQSTHVPYTFGGGTNLEIK
IC50, CCL1 induced hCCR8 Gi2 signaling (BRET, HEK-293) [1]: 0.462 nM and 0.069 µg/mL
% positive cells [2]: 85.7%
MFI fold change to isotype ctrl [2]: 9.8 fold
binding result [3]: binds
binding result [4]: binds
binding result [5]: binds
binding result [6]: binds
binding result [7]: binds
binding result [8]: binds
binding result [9]: binds
binding result [10]: binds
hCCL1 (100 nM) residual response in %, Protocol #2, mAb 0.08 µg/mL (0.53 nM) [11]: 101%
hCCL1 (100 nM) residual response in %, Protocol #2, mAb 0.4 µg/mL (2.67 nM) [11]: 93%
hCCL1 (100 nM) residual response in %, Protocol #2, mAb 10 µg/mL (66.7 nM) [11]: 100%
hCCL1 (100 nM) residual response in %, Protocol #3, mAb 0.05 µg/mL (0.33 nM) [11]: 92%
hCCL1 (100 nM) residual response in %, Protocol #3, mAb 0.5 µg/mL (3.33 nM) [11]: 81%
hCCL1 (100 nM) residual response in %, Protocol #3, mAb 5 µg/mL (33.3 nM) [11]: 73%
IC50, CCL1 induced hCCR8 Gi2 signaling (BRET) at pH 6.5 [12]: 0.051 µg/ml and 0.34 nM
IC50, CCL1 induced hCCR8 Gi2 signaling (BRET) at pH 7.4 [12]: 0.059 µg/ml and 0.396 nM
IC50 [13]: 1.29 µg/mL and 8.62 nM
Top plateau values in presence of 5 µg/mL mAb (% of hCCL1 (100 nM)), protocol #3 [14]: 663%

B2: anti-CCR8 mAb 2-2 (antibody, V domains shown)
VH: QVQLKESGPGLVAPSQSLSITCTVSGLSMNDYVVTWIRQPPGKGLEWLGVIWGGGNTYYNSDLKSRLSITKDNSKSQVFFKMSSLQTDDTAVYYCARRHRDYALDYWGQGISVTVSS
VL: B1 VL with C25S, T26S, L30V, H31Y, D35N, N50K, N81S, H98Y, Y101P, N108K
IC50, CCL1 induced hCCR8 Gi2 signaling (BRET, HEK-293) [1]: 0.143 µg/mL and 0.954 nM
% positive cells [2]: 85.2%
MFI fold change to isotype ctrl [2]: 11.9 fold
binding result [3]: binds
binding result [4]: binds
binding result [5]: binds
binding result [6]: binds
binding result [7]: binds
binding result [8]: binds
binding result [9]: binds
binding result [10]: binds
hCCL1 (100 nM) residual response in %, Protocol #2, mAb 0.08 µg/mL (0.53 nM) [11]: 99%
hCCL1 (100 nM) residual response in %, Protocol #2, mAb 0.4 µg/mL (2.67 nM) [11]: 97%
hCCL1 (100 nM) residual response in %, Protocol #2, mAb 10 µg/mL (66.7 nM) [11]: 97%
hCCL1 (100 nM) residual response in %, Protocol #3, mAb 0.05 µg/mL (0.33 nM) [11]: 99%
hCCL1 (100 nM) residual response in %, Protocol #3, mAb 0.5 µg/mL (3.33 nM) [11]: 84%
hCCL1 (100 nM) residual response in %, Protocol #3, mAb 5 µg/mL (33.3 nM) [11]: 75%
IC50, CCL1 induced hCCR8 Gi2 signaling (BRET) at pH 6.5 [12]: 0.414 µg/ml and 2.76 nM
IC50, CCL1 induced hCCR8 Gi2 signaling (BRET) at pH 7.4 [12]: 0.359 µg/ml and 2.4 nM
IC50 [13]: 2.65 µg/mL and 15.2 nM
Top plateau values in presence of 5 µg/mL mAb (% of hCCL1 (100 nM)), protocol #3 [14]: 133%

B5: afucosylated humanized anti-CCR8 mAb 2-16 (antibody, human IgG1, kappa)
heavy: not shown
light: DIVMTQAAPSLSVTPGESASISCTSSKSLLHSNGNTYLYWFLQKPGQSPQLLIYRMSNLASGVPDRFSGSGSGTAFTLKISRVEAEDVGVYYCMQHREYPFTFGSGTKLEIKRTVAAPSVFIFPPSDEQLKSGTASVVCLLNNFYPREAKVQWKVDNALQSGNSQESVTEQDSKDSTYSLSSTLTLSKADYEKHKVYACEVTHQGLSSPVTKSFNRGEC
modifications: afucosylated Fc glycan
notes: Same chains as 2-13, produced with 2-deoxy-2-fluoro-L-fucose (afucosylated)
% of labelled cells [17]: 34%
EC50 [17]: 0.4 nM
MFI fold change to isotype ctrl [17]: 2.5 fold
ADCP % Max of phagocytosis, HUT78 targets, monocyte-derived macrophages Donor 9 [15]: 8.29%
ADCC EC50, HUT78 targets, NK cells Donor 1 [18]: 0.00224 nM
ADCC EC50, HUT78 targets, NK cells Donor 2 [18]: 0.00042 nM

The next lines start with the values.

ADCP % Max of phagocytosis, HUT78 targets, monocyte-derived macrophages Donor 9 [15]: 7.27%
ADCC % Max lysis, HUT78 targets, NK cells Donor 3 [16]: 25%
ADCC % Max lysis, HUT78 targets, NK cells Donor 4 [16]: 28%
ADCC EC50, HUT78 targets, NK cells Donor 3 [16]: 0.218 nM
ADCC EC50, HUT78 targets, NK cells Donor 4 [16]: 0.053 nM
B3: chimeric anti-CCR8 mAb 2-18 (antibody, human IgG1, kappa)
heavy: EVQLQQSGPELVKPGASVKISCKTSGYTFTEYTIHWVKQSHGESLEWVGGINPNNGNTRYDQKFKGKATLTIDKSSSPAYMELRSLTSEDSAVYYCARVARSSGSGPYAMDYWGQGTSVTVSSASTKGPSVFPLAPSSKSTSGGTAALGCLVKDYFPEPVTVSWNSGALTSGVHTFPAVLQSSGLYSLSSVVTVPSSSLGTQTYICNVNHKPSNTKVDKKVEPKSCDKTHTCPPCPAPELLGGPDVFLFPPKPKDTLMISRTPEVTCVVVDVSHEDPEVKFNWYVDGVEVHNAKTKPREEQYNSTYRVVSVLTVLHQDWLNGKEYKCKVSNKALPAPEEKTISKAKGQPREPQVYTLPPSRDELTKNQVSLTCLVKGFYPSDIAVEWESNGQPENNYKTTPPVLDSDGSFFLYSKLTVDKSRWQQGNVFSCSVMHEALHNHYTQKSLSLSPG
light: DVVMTQTPLSLPVSLGDQASISCRCTQSLLHTNGDTYLHWYLQKPGQSPKLLIYKVSNRFSGVPDRFSGSGSGTDFTLKISRVEAEDLGVYFCSQSTHVPYTFGGGTKLEIKRTVAAPSVFIFPPSDEQLKSGTASVVCLLNNFYPREAKVQWKVDNALQSGNSQESVTEQDSKDSTYSLSSTLTLSKADYEKHKVYACEVTHQGLSSPVTKSFNRGEC

IC50, CCL1 induced hCCR8 Gi2 signaling (BRET, HEK-293) [1]: 0.004 µg/mL and 0.029 nM
% positive cells [2]: 77%
MFI fold change to isotype ctrl [2]: 9.2 fold
binding result [3]: binds
binding result [4]: binds
binding result [5]: binds
binding result [6]: binds
binding result [7]: binds
binding result [8]: binds
binding result [9]: binds
binding result [10]: binds
hCCL1 (100 nM) residual response in %, Protocol #2, mAb 0.08 µg/mL (0.53 nM) [11]: 52%
hCCL1 (100 nM) residual response in %, Protocol #2, mAb 0.4 µg/mL (2.67 nM) [11]: 68%
hCCL1 (100 nM) residual response in %, Protocol #2, mAb 10 µg/mL (66.7 nM) [11]: 53%
hCCL1 (100 nM) residual response in %, Protocol #3, mAb 0.05 µg/mL (0.33 nM) [11]: 76%
hCCL1 (100 nM) residual response in %, Protocol #3, mAb 0.5 µg/mL (3.33 nM) [11]: 62%
hCCL1 (100 nM) residual response in %, Protocol #3, mAb 5 µg/mL (33.3 nM) [11]: 59%
IC50 [13]: 0.22 µg/mL and 1.46 nM
Top plateau values in presence of 5 µg/mL mAb (% of hCCL1 (100 nM)), protocol #3 [14]: 948%
B4: anti-CCR8 mAb 2-10 (antibody, V domains shown)
VH: QVQVQQSGAELARPGASVKMSCKASGYTFTTYAMHWVKQRPGQGLEWIGHINPSSGYSNYNQKFKDKATLTADKSSSTAYMQLSSLTSEDSAVYYCARSEVRRGYFDVWGAGTTVTVSS
VL: DIQMTQTTSSLSASLGDRVTISCRTSQDIRNYLNWYQQKPDGTVKLLISYTSRLHSGVPSRFSGSGSGTDYSLTISNLEQEDFATYFCQQGNTLPPTFGGGTRVEIK
